Our source for the solubility values is US20100203150A1, “Novel amphiphilic copolymers and fabrication method thereof” (priority 2009, published 2010).

The data set is described as follows: Solubility in common solvents and co-solvents. The note with it: some common organic solvents and co-solvents.

As to “5′-deoxy-5-fluorouridine-poly(ε-caprolactone) [5′-DFUR-PCL]”, the solubility result is “soluble”.
